Measurements published in the Human Domainome abundance scans (Beltran et al. 2025).

B1: Zinc finger homeobox protein 4, residues 2086 to 2141; numbered along this chain, Q86UP3 (parent)
chain: RPRTRITDDQLKILRAYFDINNSPSEEQIQEMAEKSGLSQKVIKHWFRNTLFKERQ

Variants of: B1
Assay: abundance fitness (aPCA) (normalised: wild type 0, dead -1); higher = more abundant; growth selection in yeast, the domain comes from the species named
Conditions: Homo sapiens

Abundance fitness, by site and new letter:
I20: Y -0.113
N21: V -0.189 | H -0.117 | K -0.187 | W -0.111 | T 0.009 | G -0.261 | Y -0.156 | I -0.114 | M 0.203 | P -0.494 | D -0.028 | E 0.122 | S -0.048 | A -0.031 | C -0.09 | Q -0.247 | F -0.191 | L -0.101
I29: G -0.605 | C -0.149 | R -0.21 | F -0.02 | L 0.002 | Y 0.048 | M -0.081 | A -0.376 | N -0.462 | W -0.16 | E -0.025 | Q -0.147 | K -0.226 | P -0.814 | T -0.266 | D -0.744 | H -0.347
N22: S 0.281 | P 0.201 | C -0.178 | H -0.359 | I 0.204 | D -0.182 | V 0.05 | G 0.014 | R 0.071
E27: P -0.24 | V -0.071 | M 0.082 | A 0.076 | S -0.105 | Q 0.142 | G -0.033 | L -0.194 | N 0.129 | R -0.02 | K -0.054 | D -0.18 | Y -0.391 | T -0.185 | H -0.59 | I -0.261 | W 0.021
Q28: H -0.046 | A -0.092 | T -0.034 | V -0.033 | G -0.178 | L -0.102 | F -0.416 | C -0.244 | N -0.329 | E -0.155 | D -0.12 | P -0.533 | S -0.095 | I 0.06 | K 0.064 | Y -0.236 | W -0.38 | M -0.153 | R 0.037
S23: R -0.127 | W -0.176 | Q -0.011 | V -0.052 | T -0.071 | A 0.041 | K -0.009 | N -0.004 | G -0.211 | L -0.07 | P -0.003 | D -0.131 | E 0.089 | M -0.019 | C -0.004 | H 0.187 | I -0.522
P24: F -0.538 | V -0.32 | T -0.474 | L -0.259 | W -0.435 | I -0.337 | Y -0.51 | A -0.294 | R -0.642 | D -0.844 | M -0.676 | N -0.691 | C -0.462 | H -0.427 | E -0.326 | S -0.553 | K -0.922 | G -0.793
Q30: D -0.495 | L 0.031 | A -0.019 | S -0.159 | C -0.275 | E -0.154 | K 0.146 | I 0.196 | H -0.072 | F -0.441 | G -0.116 | W -0.349 | N -0.08 | T -0.025
E26: W -0.322 | P -0.032 | G -0.154 | F 0.111 | A -0.027 | Y 0.048 | V -0.056 | K 0.039 | L -0.015 | S -0.076 | C -0.211 | T 0.133 | R 0.021 | D -0.069 | Q -0.003 | M -0.032
S25: F -0.468 | Y -0.471 | P -0.26
E31: W -0.26 | R -0.007 | D -0.07 | C -0.141 | Q -0.005 | P -0.316 | L -0.089 | A -0.104 | H -0.109 | Y -0.162 | F -0.191 | G -0.106 | I -0.09 | K 0.108 | T -0.182 | V -0.031 | N 0.011 | S -0.074
